How the values were obtained:
food intake = assay: Food intake in mice; assay type: in vivo
Description: Mice were housed in individual cages and food intake was measured at 0.5, 1, and 2 hours.
Mice were subcutaneously injected with 0.15 μmol/kg or 3 μmol/kg LEAP2.

endogenous LEAP2 = target: T1, endogenous LEAP2 (Mus musculus, UniProt Q91V13); assay: Growth hormone release after fasting and anti-LEAP2 antibody treatment; assay type: in vivo, mice; details: 10 mg/kg i.p. after 24 hour fasting
T1 construct: The mature form of LEAP2 found in circulation is a 40 amino acid cationic bicyclic peptide; from tissue; host or cells: live fasted mice; circulating endogenous LEAP2
T1 sequence (Q91V13 37-76): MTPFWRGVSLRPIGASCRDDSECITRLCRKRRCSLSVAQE
Description: FIG. 10C illustrates the experimental design for evaluating the impact of anti-LEAP2 antibodies on growth hormone release. Following a 24 hour fasting period, a baseline blood sample was taken, and anti-LEAP2 antibodies (10 mg/kg) were administered by intraperitoneal injection. Growth hormone levels were determined at 5, 10, 30, 60, 90, and 120 minutes post-injection.

[1] = Growth hormone infusion during chronic calorie restriction in LEAP2-expressing mice; assay type: in vivo; details: growth hormone pumps 0.5 μg/hr s.c.
Description: As described above, two weeks before initiation of calorie restriction, 2-3 month-old male mice were administered AAV-LEAP2 or AAV-GFP by tail vein injection. Diet treatment groups and measurements were the same as above. For growth hormone infusion, Alzet® osmotic mini-pumps filled with recombinant rat growth hormone (GroPep Bioreagents) or vehicle were implanted subcutaneously in the interscapular region. Growth hormone concentration in the pumps was 2 mg/ml and the growth hormone was delivered at a rate of 0.25 μl/hr (0.5 μg/hr).
FIG. 8A illustrates the experimental design for growth hormone infusion during chronic calorie restriction. The delivery efficiency of growth hormone was confirmed in a separate group of naïve mice kept in ad libitum conditions over 2 weeks. […] Osmotic pumps were implanted 3 days before initiation of calorie restriction. […] In LEAP2-expressing mice implanted with growth hormone pumps, 60% were able to maintain stable levels of blood glucose and survived to the end of the experiment. […] FIG. 8C presents a Kaplan-Meier survival curve of the mice from this experiment.

With `CCCCCCCC(=O)OC[C@H](NC(=O)[C@H](CO)NC(=O)CN)C(=O)N[C@@H](Cc1ccccc1)C(=O)N[C@@H](CC(C)C)C(=O)N[C@@H](CO)C(=O)N1CCC[C@H]1C(=O)N[C@@H](CCC(=O)O)C(=O)N[C@@H](Cc1c[nH]cn1)C(=O)N[C@@H](CCC(N)=O)C(=O)N[C@@H](CCCNC(=N)N)C(=O)N[C@H](C(=O)N[C@@H](CCC(N)=O)C(=O)N[C@@H](CCC(N)=O)C(=O)N[C@@H](CCCNC(=N)N)C(=O)N[C@@H](CCCCN)C(=O)N[C@@H](CCC(=O)O)C(=O)N[C@@H](CO)C(=O)N[C@@H](CCCCN)C(=O)N[C@@H](CCCCN)C(=O)N1CCC[C@H]1C(=O)N1CCC[C@H]1C(=O)N[C@@H](C)C(=O)N[C@@H](CCCCN)C(=O)N[C@@H](CC(C)C)C(=O)N[C@@H](CCC(N)=O)C(=O)N1CCC[C@H]1C(=O)N[C@@H](CCCNC(=N)N)C(=O)O)C(C)C` [ghrelin] the food intake (food intake; ghrelin 0.03 μmol/kg s.c.) was “only slightly increased” and the food intake (food intake; ghrelin 0.15 μmol/kg s.c., 1 and 2 hour time points) was “significantly promote food intake”.

B1: M18: mouse hybridoma anti-LEAP2 monoclonal antibody, VH SEQ ID NO:9, VL SEQ ID NO:10 (antibody, V domains shown)
VH: EIQLQQSGPELMKPGASVKISCKASGYSFTNYYIHWVKQSHGKSLEWIGYIDPFNGGTNYNQKFKGKATLTVDKSSSTAYMHLSSLTFEDSAVYYCARRGYYYGFTYWGQGTLVTVSA
VL: DIVLTQSPASLAVSLGQRATISCKASQSVDYDGDSYMNWYQQKPGQPPKLLIYTASNLESGIPARFSGSGSGTDFTLNIHPVEEEDAATYYCQQSNEDPYTFGGGTKLEIK
With B1 the “total amount of growth hormone released (AUC)” value (endogenous LEAP2) was “increased the total amount of growth hormone released” and the “peak of growth hormone secretion” value (endogenous LEAP2; versus control antibody) was “increased the peak of growth hormone secretion”.

B2: growth hormone: recombinant rat growth hormone (GroPep Bioreagents) delivered by Alzet osmotic mini-pumps (protein, UniProt P01244 27-216, looked up)
Somatotropin: FPAMPLSSLFANAVLRAQHLHQLAADTYKEFERAYIPEGQRYSIQNAQAAFCFSETIPAPTGKEEAQQRTDMELLRFSLLLIQSWLGPVQFLSRIFTNSLMFGTSDRVYEKLKDLEEGIQALMQELEDGSPRIGQILKQTYDKFDANMRSDDALLKNYGLLSCFKKDLHKAETYLRVMKCRRFAESSCAF
With B2 the “LEAP2-expressing mice able to maintain stable blood glucose and surviving to the end of the experiment” value [1] was 60%.

— patent publication US11548942B2, “Methods of treating a wasting syndrome, increasing growth hormone levels, and increasing GHSR activity with a LEAP2 antibody” (NGM Biopharmaceuticals, Inc., priority 2017, dated 2023)
